For this series the following is noted: Aspergillus oryzae (strain ATCC 42149 / RIB 40), 25 °C, GdnHCl, Absorbance, Unknown, KCl 0.1 M, reversible: yes, whole UniProt chain shown.

B1: Guanyl-specific ribonuclease T1 wild type, P00651 (protein)
chain: MMYSKLLTLTTLLLPTALALPSLVERACDYTCGSNCYSSSDVSTAQAAGYQLHEDGETVGSNSYPHKYNNYEGFDFSVSSPYYEWPILSSGDVYSGGSPGADRVVFNENNQLAGVITHTGASGNNFVECT
Take B1: the denaturant m value is, setting by setting: (pH 1.3) 2.03 kcal/mol/M; (pH 3) 2.91 kcal/mol/M; (pH 7) 2.93 kcal/mol/M. For the same protein, the “denaturant midpoint (higher = more stable)” value came to 0.93 M (pH 1.3), 1.94 M (pH 3) and 2.97 M (pH 7). Further, the unfolding free energy by setting is: (pH 1.3) 1.9 kcal/mol; (pH 3) 5.66 kcal/mol; (pH 7) 8.74 kcal/mol.

For the origin of these results see FireProtDB (doi:10.1042/bj2870481).
